Consider two molecules from US20220380484A1 (MONASH UNIVERSITY, published 2022).

For assay [1], the target named is plasminogen (human) (UniProt P00747). Put plainly: SPR (Biacore T200), antibody immobilised; FIG. 2.
For assay [2] the target is unchanged. Put plainly: SPR, multi-cycle; G11 immobilised on the chip, plasminogen injected as analyte; 1:1 Langmuir fit. A general note: Surface plasmon resonance follows binding to a sensor surface in real time, without labels.
Assay [3] has the same target. Put plainly: cell-based or functional assay.
Assay [4] concerns the target T1, plasmin (human, UniProt P00747 20-580; P00747 581-810).
T1 construct: Bought plasmin (Haematologic Technologies) is named in the activity assay; also called Plm; PLM
Put plainly: SPR, multi-cycle; G05 immobilised on the chip, plasmin injected as analyte; 1:1 Langmuir fit.
Source text: Dotted lines represent 1:1 Langmuir model fit to experimental data.

The target in assay [5] is plasminogen (human) (UniProt P00747). Put plainly: SPR, multi-cycle; G05 immobilised on the chip, plasminogen injected as analyte; 1:1 Langmuir fit.
In assay [6] the target is unactivatable mutant of plasminogen (recombinant plasminogen labelled with Alexa-Fluor 647) (human) (UniProt P00747). Put plainly: flow cytometry: 22.2 nM Alexa-Fluor 647 plasminogen on Group A Streptococcus cells with 2.22 µM G05. A general note: In flow cytometry, cells or beads pass a laser one at a time.
The target of assay [7] is plasminogen (human) (UniProt P00747). Put plainly: SPR (Biacore T200), antibody immobilised; FIG. 1.
For assay [8], the target named is unactivatable mutant of plasminogen (recombinant plasminogen labelled with Alexa-Fluor 647) (human) (UniProt P00747). Put plainly: SDS-PAGE fluorescence scan of the bound fraction: 0.2 µM labelled plasminogen on Group A Streptococcus cells with 7.5 µM G05.

The Kd is the constant that tells how readily two partners part at equilibrium. Lower therefore signals higher affinity. Broadly, the koff is a measure of how fast the partners let go of each other. What is called kon is a measure of how fast the partners come together. High values mean fast association, low ones slow association.

T1 sequence (P00747 20-580, chain 1 of 2): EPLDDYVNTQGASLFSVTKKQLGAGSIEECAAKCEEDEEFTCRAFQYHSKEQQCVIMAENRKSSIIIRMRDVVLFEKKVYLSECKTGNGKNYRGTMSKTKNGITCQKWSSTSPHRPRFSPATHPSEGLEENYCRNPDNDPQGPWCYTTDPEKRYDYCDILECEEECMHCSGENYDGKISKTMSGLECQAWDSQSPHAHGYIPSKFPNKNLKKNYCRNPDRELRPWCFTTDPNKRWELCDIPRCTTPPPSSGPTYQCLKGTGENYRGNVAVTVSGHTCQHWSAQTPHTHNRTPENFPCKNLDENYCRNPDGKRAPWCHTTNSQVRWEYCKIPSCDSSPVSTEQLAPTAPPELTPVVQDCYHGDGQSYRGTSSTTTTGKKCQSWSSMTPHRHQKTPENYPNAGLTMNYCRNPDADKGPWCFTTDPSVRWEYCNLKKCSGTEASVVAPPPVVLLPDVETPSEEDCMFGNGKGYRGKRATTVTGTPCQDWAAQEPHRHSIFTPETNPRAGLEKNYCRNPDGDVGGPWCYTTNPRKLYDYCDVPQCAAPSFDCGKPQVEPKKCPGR
T1 sequence (P00747 581-810, chain 2 of 2): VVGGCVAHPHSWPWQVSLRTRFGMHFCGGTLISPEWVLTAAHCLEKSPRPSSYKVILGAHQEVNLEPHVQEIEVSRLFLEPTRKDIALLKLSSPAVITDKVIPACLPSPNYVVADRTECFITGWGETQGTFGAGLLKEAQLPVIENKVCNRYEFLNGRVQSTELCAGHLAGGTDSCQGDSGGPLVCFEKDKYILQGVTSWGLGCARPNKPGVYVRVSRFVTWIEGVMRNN

B1: G11 antibody (scFv, part only; not given: linker between domains, part only)
scFv, part: QAALTQPSSVSANPGEIVEITCSGGGTYYGWYQQKSPGSAPVTMIYQNNQRPSNIPSRFSGSGSGPANTLTITGVRAEDEAVYYCGGYDSSAGYATFGAGTTLTVLAVTLDESGGGLQTPGGGLSLVCKASGFSISSYSMYWVRQAPGKGLEFVASISSDGSDTSYGSAVKGRATISRDNGQSTVRLQLNYLRAEDTGTYFCAKPTGGYYTWYETGSIDTWGHGTEVIVSS
B1: in assay [1], the fold greater affinity for plasminogen compared to plasmin worked out at 10 fold. Besides, in assay [2], the equilibrium dissociation constant (Kd) was found to be 14 nM, the koff was determined as 0.0018 s⁻¹ and the association rate constant (kon) came out at 420000 M⁻¹ s⁻¹. In assay [3], this molecule yielded an IC50 of tPA-mediated plasminogen activation in solution (20 nM plasminogen, 20 mM EACA, 4 nM tPA, fluorogenic plasmin substrate) of 20 nM and an IC50 of tPA-mediated plasminogen activation on a preformed fibrin clot (100 nM plasminogen) of 47 nM.

B2: G05 antibody (scFv, V domains shown)
VH: AVTLDESGGGLQTPGRALSLVCKASGFTFSSYAMHWVRQAPGKGLEFVAGIDNIGSYTRYGAAVKGRVTISRDNGQSIVRLQLDNLRAEDTGTYYCAKSAYGGSCCGPAYIDAWGHGTEVIVSS
VL: QAALTQPSSVSANPGETVEITCSGGGRSSYYGWYQQKSPGSAPVTLIYDNTNRPSNIPSRFSGSKSGSTATLTITGVQGEDEAVYFCGSADSSTTGIFGAGTTLTVL
notes: Chicken antibody from an scFv library (VH and VL joined by a flexible linker); also called scFv fragment of G05
In assay [4], B2 came in with an equilibrium dissociation constant (Kd) of 0.76 nM, a koff of 0.00046 s⁻¹ and an on-rate constant (kon) of 640000 M⁻¹ s⁻¹. In addition, in assay [5], the equilibrium dissociation constant (Kd) came out at 7.9 nM, the koff amounted to 0.00071 s⁻¹ and the on-rate constant (kon) was 409000 M⁻¹ s⁻¹. Further, the percent inhibition of plasminogen binding to GAS cells in assay [6] came to 40%. In assay [7], this molecule had a fold greater affinity for plasminogen compared to plasmin of 10 fold. For the same molecule, the percent reduction in plasminogen binding to GAS cells in assay [8] worked out at 70%. In assay [3], this molecule came in with an IC50 of tPA-mediated plasminogen activation in solution (20 nM plasminogen, 20 mM EACA, 4 nM tPA, fluorogenic plasmin substrate) of 17.3 nM and an IC50 of tPA-mediated plasminogen activation on a preformed fibrin clot (100 nM plasminogen) of 292 nM.
